From PMC6336196 (Nature, 2018)
Read-outs that look alike come from different tables or passages of the source.

B1: Cyphellophora europaea mitochondrial calcium uniporter (natural protein, UniProt W2SDE2 1-346, looked up)
chain: MTKGKLLTTPSRLLKLVLPLSTVDHNTDRKDVAPLALLVHPQQPLSYLERLIQAELPPPDPQDSKSTTRSVTFRAMEAKDDEIKPRKKADTEGGGGSDGSVQSYSGAGREGEGKDEGEFVRWSPSTEIGDFIRDAARAKEFEVEIEGSPGVIKVAVPSFNDRTYYLRQRLRRTSRKISKLAAIKEECDKAAHRGAQRIALAGCGGLIGYWYIVYRLTFETDLGWDVMEPVTYLVGLSTLIGGYMWFLWHNREVSYRSALNITVSARQNKLYQAKGFSLQDWEGYLEEANAMRREIKAVASEYDVDWNETQDEGGDEKVTKALRDERKNNNGTKNKSKEGEEDDEDD
B2: Danio rerio (zebrafish) mitochondrial calcium uniporter (natural protein, zebrafish (Danio rerio), UniProt Q08BI9 35-376, looked up)
chain: QGTKTEALSMSLGGHQTVRRAHGLRTGGRCALFCHPSATLTAQGWKGSPSWQVQRLLCSPAAEDVSVVYQNGLPVISVRLPSRRERCQFTLKPLSDTVGVFLQQLQAEDRGIDRVTIYSADGARIASSTGIDILLMDNFKLVINDTSYLVQPPRRDLLPHEDGERLNDVKILVQQLYTTLRIEEHQLNKERELIGRLEDLNSQLQPLEKVKEELSKKAERRTTWVLWGGMAYMATQFGILARLTWWEYSWDIMEPVTYFITYGTAMAMYAYFVLTRQEYLYPDARDRQYLLFFHRGAKRTRFDIEKYNKLKDAIAEAELDLKRLRDPLQLNLPIQQIDTSKD

Columns and labels:
[1] = biological target: the molecule itself; assay: cryo-EM structure
[2] = biological target: the molecule itself; assay: cryo-EM structure; remark: listed apart in the source

Row | Protein | stoichiometry N [1] | stoichiometry N [2]
1 | B1 | 4 | 
2 | B2 |  | 4
